Positions count from the first letter of the chain named. Names and notes keep the numbering of the source.
How the values were obtained:
[1] = biological target: T1, human LY6H, endogenous on cancer cell lines (H446, DMS79, H526, MOLT3, KE-37) (human, UniProt O94772 26-115); assay: flow cytometry, antibody titrated 0.1-100 nM on MOLT3 cells, MFI; lower panel and table, column MOLT3_EC50 (nM)
T1 construct: Endogenous protein on human SCLC and T-ALL cell lines
T1 sequence (looked up): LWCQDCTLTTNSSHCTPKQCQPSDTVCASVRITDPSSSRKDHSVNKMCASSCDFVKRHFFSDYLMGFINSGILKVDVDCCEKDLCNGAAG
Method: (§1) The assay uses 3-5 fold dilutions (from 100 nM to 0.1 nM) of antibody of a stock antibody concentration (100 nM) in binding buffer. Serial diluted antibodies were incubated with live cells on ice for 30 minutes, after a brief wash, cells were incubated with Alexa Fluro® 488-conjugated anti-human IgG secondary antibody @1:100, or 15 μg/ml (709-546-149, Jackson ImmunoResearch). Acquisition of the MFI (Median Fluorescent Intensity) was performed on a MACSQuant® Flow Cytometers (Miltenyi Biotec). EC₅₀ was calculated using Dose-response EC₅₀ shift by global fitting from GraphPad Prism.
(§2) An estimate of affinity is interpreted from one-half the concentration at which antibody binding first achieves saturation.

[2] = biological target: T1, human LY6H, endogenous on cancer cell …; assay: flow cytometry, antibody titrated 0.1-100 nM on DMS79 cells, MFI; lower panel and table, column DMS79_EC50 (nM)
Method: as §1, §2

[3] = biological target: T2, recombinant human LY6H-ECD (C-terminal histidine tag) (human, UniProt O94772 26-115); assay: Octet Red BLI, antibody on Protein A biosensor, recombinant human LY6H in solution
T2 construct: The ectodomain was cloned by PCR with a non-native signal peptide and a C-terminal histidine tag; also called recombinant LY6H; hLY6H-ECD; not shown: C-terminal histidine tag
T2 sequence (looked up): T1 sequence (looked up)
Method: (§3) Affinity: The affinity of antibodies to various recombinant LY6H protein was determined on an Octet Red™ instrument. After loading reagents into a 96-well plate, the Octet Red with Protein A-conjugated biosensors was programmed as follows: 30 seconds for baseline #1; 120 seconds to immobilize the antibody; 30 seconds for baseline #2; 300 seconds for association of antibody to recombinant LY6H; and 300-600 seconds for dissociation of recombinant LY6H from the antibody.

[4] = biological target: T3, Macaca fascicularis LY6H expressed on 293T cells (plasmid BBP 492/598, M1-P140 plus Myc-DDK) (Macaca fascicularis, UniProt Q4R5M8 26-115); assay: flow cytometry on 293 cells expressing Macaca fascicularis LY6H (293-neo-cyno LY6H); antibody 1 ug/ml per paragraph 484; solid histogram = hIgG1 control [cont.]
T3 construct: Full construct as encoded; also called monkey LY6H; not shown: Myc-DDK tag at the C-terminus
T3 sequence: T1 sequence (looked up) with C80Y, A88V
Method: Staining for flow cytometry was performed in 1× cold PBS with 0.5% BSA.

[5] = biological target: T1, human LY6H, endogenous on cancer cell …; assay: flow cytometry, antibody titrated 0.1-100 nM on H446 cells, MFI; column H446_EC50 (nM)
Method: as §1, §2

[6] = biological target: T1, human LY6H, endogenous on cancer cell …; assay: flow cytometry, antibody titrated 0.1-100 nM on MOLT3 cells, MFI; upper panel and table, column MOLT3_EC50 (nM)
Method: as §1, §2

[7] = biological target: T1, human LY6H, endogenous on cancer cell …; assay: flow cytometry, antibody titrated 0.1-100 nM on H526 cells, MFI; column H526_EC50 (nM)
Method: as §1, §2

[8] = biological target: T1, human LY6H, endogenous on cancer cell …; assay: flow cytometry, antibody titrated 0.1-100 nM on DMS79 cells, MFI; upper panel and table, column DMS79_EC50 (nM)
Method: as §1, §2

[9] = biological target: T3, Macaca fascicularis LY6H expressed on …; assay: on-cell affinity by flow cytometry: unconjugated 12G7 (0.05-100 nM) competes with 1 nM PE-conjugated 12G7 on 293T cells expressing Macaca fascicularis LY6H (per legend paragraph 131); table row 293T-mmLY6H
Method: (§4) Serial diluted antibodies were incubated with 293 cells expressing either human or Macaca fascicularis on ice for 4 hours, after a brief wash. Acquisition of the MFI (Median Fluorescent Intensity) was performed on a MACSQuant® Flow Cytometers (Miltenyi Biotec). On cell affinity (Kd) was calculated using dose-response EC50 shift by global fitting from GraphPad Prism™.
as §4, with “live” for “293”, “cells” for “cells expressing either human or Macaca fascicularis”, “Dose-response EC₅₀” for “dose-response EC50”

[10] = biological target: T1, human LY6H, endogenous on cancer cell …; assay: flow cytometry, antibody titrated 0.1-100 nM on H526 cells, MFI; column H526_EC50 (nM); curve has no plateau at 100 nM
Method: as §1, §2

[11] = biological target: T2, recombinant human LY6H-ECD (C-terminal …); assay: Octet (bio-layer interferometry), table row Octet; antigen not named on the sheet, recombinant human LY6H per paragraph 455 and Table 8 (Table 8 prints 33 for 1F8)
Method: as §3

[12] = biological target: T3, Macaca fascicularis LY6H expressed on …; assay: on-cell affinity by flow cytometry: unconjugated 1F8 (0.05-100 nM) competes with 1 nM PE-conjugated 1F8 on 293T cells expressing Macaca fascicularis LY6H (per legend paragraph 131); table row 293T-mmLY6H
Method: as §4
as §4, with “live” for “293”, “cells” for “cells expressing either human or Macaca fascicularis”, “Dose-response EC₅₀” for “dose-response EC50”

[13] = biological target: T1, human LY6H, endogenous on cancer cell …; assay: flow cytometry, antibody titrated 0.1-100 nM on H526 cells, MFI; column H526_EC50 (nM); value lies above the highest concentration tested, curve has no plateau
Method: as §1, §2

B1: 6D11 (antibody, V domains shown)
VH: QVQLQQWGAGLFKPSETLSLTCAVYGGSFSGSLWSWIRQPPGKGLEWIGEINHSGSTNYTPSLKSRVTISVDTSKNQFSLKLTSVTAADTAVYYCARGRHIVVVTAIHSPFDYWGQGTLVTVSS
VL: DIQMTQSPSSLSASVGDRVTITCRASQGISNYLAWYQQKPGKVPKLLIFAASTLQSGVPSRFSGSGSGTDFTLTISSLQPEDVATYYCQKYNSAPRTFGQGTKLEIK
notes: Recombinant antibody made in CHO cells; also called 6D11_25D6
- EC50 [1]: 0.6 nM
- EC50 [2]: 1.3 nM
- Kd [3]: 22 nM
- binding result [4]: binds

B2: 6D11-41B4 (antibody, V domains shown)
VH: B1 VH with S54A, N58Q
VL: B1 VL
- Kd [3]: 25 nM

B3: 12G7 (antibody, V domains shown)
VH: QVQLQQWGAGLLKPSETLSLTCAVYGGSFSGYYWSWIRQPPGKGLEWIGEINHSGSTYYNPSLKSRVTMSVDTSKNQFSLKLSSVTAADTAVYYCAKRWELGAFDIWGQGTMVTVSS
VL: B1 VL with F49Y
notes: Recombinant antibody from H2L2 mice (human variable regions), made in CHO cells, purified on Protein A and detected with anti-human IgG; also called 12G7_19A2; anti-LY6H antibody (12G7)
- EC50 [1]: 0.8 nM
- EC50 [5]: 3 nM
- EC50 [6]: 0.7 nM
- EC50 [2]: 1.9 nM
- Kd [3]: 4 nM
- EC50 [7]: 1.9 nM
- EC50 [8]: 2.4 nM
- Kd [9]: 14.5 nM

B4: 12G7-S54A (antibody, V domains shown)
VH: B3 VH with S54A
VL: B1 VL with F49Y
- Kd [3]: 4 nM

B5: 23F3 (antibody, V domains shown)
VH: QVQLQESGPGLVKPSGTLSLTCAVSGGSISSSNWWSWVRQPPGKGLEWIGEIYHSGSTNYNPSLKSRVTISVDKSKNQFSLKLSSVTAADTAVYYCARVDILTGGNFDYWGQGTLVTVSS
VL: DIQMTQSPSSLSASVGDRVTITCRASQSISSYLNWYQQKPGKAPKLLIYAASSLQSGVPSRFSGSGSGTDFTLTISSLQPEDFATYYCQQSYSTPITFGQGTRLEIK
notes: also called 23F3_19B2
- EC50 [5]: 2.3 nM
- EC50 [6]: 5.4 nM
- EC50 [8]: 17.8 nM
- EC50 [10]: 73.5 nM

B6: 11D9 (antibody, V domains shown)
VH: QVQLQESGPGLVKPSGTLSLTCTVSGGSISSSSWWSWVRLPPGKGLEWIGEIYHSGSTNYNPSLKSRVTISVDKSKNQFSLKLSSVTAADTAVYYCGGVRGVVMAFDIWGQGTMVTVSS
VL: not shown
notes: also called 11D9_19D5
- EC50 [5]: 2.6 nM
- EC50 [6]: 1.4 nM
- Kd [3]: 31 nM
- EC50 [8]: 2.2 nM
- EC50 [10]: 13.2 nM

B7: 2B11 (antibody, V domains shown)
VH: QVQLVESGGGVVQPGRSLRLSCAASGFTFSNYGMHWVRQAPGKGLEWVAVIWYDGSNKYYADSVKGRFTISRDNSKNTLYLQMNSLRTEDTAVYYCARSIVVVTATLDYWGQGTLVTVSS
VL: not shown
notes: also called 2B11_25D1
- EC50 [1]: 3.9 nM
- EC50 [2]: 3.4 nM

B8: 1F8 (antibody, V domains shown)
VH: B7 VH with N57Y
VL: not shown
notes: also called 1F8_25B6; IF8
- EC50 [1]: 2.7 nM
- Kd [11]: 31 nM
- Kd [12]: 21 nM
- EC50 [2]: 3.3 nM
- Kd [3]: 33 nM

B9: 34H6 (antibody, V domains shown)
VH: B7 VH with N31S, T88A, A105G, T106F, L107G
VL: not shown
notes: also called 34H6_20A1
- EC50 [5]: 2.4 nM
- EC50 [6]: 0.7 nM
- EC50 [7]: 2.9 nM
- EC50 [8]: 0.9 nM

B10: 10B10 (antibody, V domains shown)
VH: QVQLQQWGAGLLKPSETLSLTCAVYGGSFSGYYWHWIRQPPGKGLEWIGEINHSESTKYNPSLKSRVTISVDTSKNQFSLKLSSVTGADTAVYYCARGQHIVVVTDSLGDYWGQGTLVTVSS
VL: B1 VL with F49Y
notes: also called 10B10_25A1
- EC50 [1]: 0.7 nM
- EC50 [2]: 2 nM
- Kd [3]: 47 nM

B11: 10B10-S54A (antibody, V domains shown)
VH: B10 VH with S54A
VL: B1 VL with F49Y
- Kd [3]: 42 nM

B12: 22A5_19A5 (antibody, V domains shown)
VH: QVQLVESGGGVVQPGRSLRLSCAASGFTFSSYGMHWVRQAPGKGLEWVAVIWYDGSNKYYADSVKGRFTISRDNSKNTLYLQMNSLRAEDTAVYYCARDLWFGESRGGMDVWGQGTTVTVSS
VL: not shown
notes: human anti-LY6H antibody
- EC50 [13]: 122 nM

From patent US20250319180A1 (BLUEFIN BIOMEDICINE, published 2025)
